Laboratory results reported in patent publication US10426871B2, “Nanostructure surface coated medical implants and methods of using the same” (The Regents of the University of California, priority 2007, dated 2019).

Key:
[1] = XPS of protein-loaded and protein-adsorbed nanotube surfaces; format: physicochemical; conditions: Adsorbed (control)
Description: To evaluate the differences in amounts of protein in nanotubes, X-ray photoelectron spectroscopy (XPS) analysis was carried out. XPS is a surface sensitive technique which can detect changes in surface composition for up to 2-20 atomic layers, depending on the material. Since the nanotubes are approximately 400 nm long, XPS can be used to verify the differences in surface concentrations due to different amounts of BSA and LYS loaded. The loaded nanotube surfaces along with adsorbed surfaces were mounted on an XPS stage. Three spots per sample were analyzed. The analysis was conducted on a SSI S-Probe Monochromatized XPS Spectrometer which uses an Al-Kα-X-ray source (1486.6 eV) with an Omni Focus III small area lens and multichannel detector. A concentric hemispherical analyzer (CHA) was operated in the constant analyzer transmission mode to measure the binding energies of emitted photoelectrons. The binding energy scale was calibrated by the Au4f7/2 peak at 83.9 eV, and the linearity was verified by the Cu3p1/2 and Cu2p3/2 peaks at 76.5 and 932.5 eV respectively. Survey spectra were collected from 0 to 1100 eV with pass energy of 160 eV, and high-resolution C1s spectra were collected for each element detected with pass energy of 10 eV. Survey and high resolution spectra were collected at a 65° take off angle, defined as the angle spanned by the electron path to the analyzer and the sample surface. All spectra were referenced by setting the hydrocarbon C1s peak to 285.0 eV to compensate for residual charging effects. Data for percent atomic composition and atomic ratios were calculated using the manufacturer supplied sensitivity factor.
To evaluate the differences in amounts of protein in nanotubes, X-ray photoelectron spectroscopy (XPS) analysis was carried out. […] LYS and BSA adsorbed surfaces were used as controls. There is a steady increase in N/C ratios with increasing amounts of protein loaded into the nanotubes. A more precise way to characterize protein on the surface is to determine the fraction of C—N and N—C═O peaks in overall C1s peak. The C—N and N—C═O peaks are characteristic of proteins which are at a shift of 0.8 eV and 1.8 eV respectively from the C—C peak (285 eV). Thus, high resolution C1s scans were taken and the peak fit analysis software provided with the XPS instrument was used to determine % of C—N and N—C═O in the overall C1s peak (Table 3). A convolution of Gaussian components was assumed for all the peaks. There is an increase in the intensity for the […], C—N and N—C═O peaks with increasing amounts of proteins loaded into the nanotubes.

[2] = cited from earlier work
[3] = Release of proteins from nanotubes into PBS (Micro-BCA); format: physicochemical; set-up: time point at which all the protein is released from the nanotubes: unit: min; conditions: for time point at which all the protein is released from the nanotubes: PBS, room temperature, 70 rpm
Description: In order to release the proteins from the nanotubes, the surfaces were immersed in 500 μl of PBS in a 24-well plate at room temperature with orbital shaking at 70 rpm. 200 μl of samples were taken after specific intervals of time to determine the release kinetics. Samples were collected periodically for up to 120 minutes. The solution was replaced with 200 μl of fresh PBS every time the samples were taken. The samples were analyzed for protein content using a commercially available Micro-BCA assay kit and the concentration was adjusted for dilutions due to replacement of fresh PBS.

Substance | C—C fraction of overall C1s peak (high resolution XPS) [1] | C—N fraction of overall C1s peak (high resolution XPS) [1] | N/C ratio (XPS survey scan) [1] | N—C═O fraction of overall C1s peak (high resolution XPS) [1] | Net charge @ pH 7.0 [2] | time point at which all the protein is released from the nanotubes ([3]; 200 μg loaded) | time point at which all the protein is released from the nanotubes ([3]; 400 μg loaded) | time point at which all the protein is released from the nanotubes ([3]; 800 μg loaded) | release from the nanotubes compared to that of BSA (in words) [3]
Bovine Serum Albumin: model protein, larger molecule with net negative charge, loaded into titania nanotubes | 0.81 | 0.11 | 0.123 | 0.08 | −18 | 25 | 50 | 65 | –
Lysozyme: model protein, smaller in size with net positive charge, loaded into titania nanotubes | 0.73 | 0.22 | 0.215 | 0.03 | +7 | 36 | 85 | 110 | much slower
